Experimental data taken from patent US20240247058A1 (published 2024).
Positions count from the first letter of the chain named. One block for each binder: values may come before it.

How the values were obtained:
[1] = target: T1, human Tumour Necrosis Factor alpha (hTNFα) (human, UniProt P01375 77-233); experiment: cell-based or functional assay
[2] = target: T1, human Tumour Necrosis Factor alpha …; experiment: kinetics on hTNFα, Table 1 (instrument for Ka/Kd not stated)
[3] = target: T1, human Tumour Necrosis Factor alpha …; experiment: BLI, Octet RED96, biotinylated hTNF-α on streptavidin sensors (BIAcore cell is n/a)
[4] = target: T1, human Tumour Necrosis Factor alpha …; experiment: BLI, Octet RED96, biotinylated hTNF-α on streptavidin sensors
[5] = target: T1, human Tumour Necrosis Factor alpha …; experiment: SPR, BIAcore T200, TNFα amine-coupled to chip, 1:1 Langmuir fit
mouse ICOS ligand = target: T2, mouse ICOS ligand (mouse, UniProt Q9JHJ8 47-279, limits assumed); experiment: binding ELISA on human and mouse ICOS ligands (FIG. 11)
T2 construct: the construct is not described; also called mICOSL
T2 sequence (looked up): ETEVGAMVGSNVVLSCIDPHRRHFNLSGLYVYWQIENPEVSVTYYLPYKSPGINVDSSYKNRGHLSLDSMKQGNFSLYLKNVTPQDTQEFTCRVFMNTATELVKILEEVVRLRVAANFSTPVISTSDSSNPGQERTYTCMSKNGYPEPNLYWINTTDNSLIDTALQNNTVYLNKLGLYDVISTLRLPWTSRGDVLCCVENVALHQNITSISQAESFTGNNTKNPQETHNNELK

human ICOS ligand = target: T3, human ICOS ligand (human, UniProt O75144 19-258, limits assumed); experiment: as above
T3 construct: also called hICOSL
T3 sequence (looked up): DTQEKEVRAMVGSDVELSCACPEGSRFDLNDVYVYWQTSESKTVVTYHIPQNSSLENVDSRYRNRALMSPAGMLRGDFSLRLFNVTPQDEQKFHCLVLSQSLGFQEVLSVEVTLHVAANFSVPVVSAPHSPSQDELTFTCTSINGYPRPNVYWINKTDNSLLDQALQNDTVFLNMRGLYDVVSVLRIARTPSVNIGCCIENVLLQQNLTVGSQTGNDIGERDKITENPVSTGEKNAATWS

[6] = target: T1, human Tumour Necrosis Factor alpha …; experiment: binding profile of humanised D1 versions on hTNF-alpha (FIG. 16)
[7] = target: T1, human Tumour Necrosis Factor alpha …; experiment: statement in the legend of the Caco-2 permeability assay (FIG. 8)
Mouse TNFα = target: T4, Mouse TNFα (mouse, UniProt P06804 80-235); experiment: cell-based or functional assay
T4 sequence (looked up): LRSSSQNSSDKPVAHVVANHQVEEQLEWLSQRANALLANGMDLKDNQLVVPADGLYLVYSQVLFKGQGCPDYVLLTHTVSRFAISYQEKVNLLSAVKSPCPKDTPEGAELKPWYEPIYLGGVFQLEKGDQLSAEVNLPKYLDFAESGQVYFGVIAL

T1 sequence (P01375 77-233 limits assumed): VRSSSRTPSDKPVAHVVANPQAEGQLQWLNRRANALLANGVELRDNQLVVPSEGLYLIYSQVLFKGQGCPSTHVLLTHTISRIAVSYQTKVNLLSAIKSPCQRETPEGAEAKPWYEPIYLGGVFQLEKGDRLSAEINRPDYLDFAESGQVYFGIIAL

B1: TNF VNAR DIMER D1-B4 (VNAR)
chain: ARVDQTPQTITKETGESLPINCVLRDSHCATSSTYWYRKKSGSTNEESISKGGRYVETVNSGSKSFSLRINDLTVEDSGTYRCASECQYGLAEYDVYGGGTVVTVNGGGGSGGGGGSGAHSARVDQTPQTITKETGESLTINCVLRDSNCALSSMYWYRKKSGSTNEESISKGGRYVETVNSGSKSFSLRINDLTVEDSGTYRCKVYIPCIDELVYMISGGTSGPIHDVYGGGTVVTVNAAAHHHHHHGAAEQKLISEEDL
ND50 (nM), neutralisation of hTNF-alpha cytotoxicity in L929 cells [1]: 8 nM
koff [2]: 0.0005 s⁻¹
kon [2]: 270000 M⁻¹ s⁻¹
Kd [3]: 15.9 nM

B2: TNF VNAR D1-BA11-D1 (VNAR)
chain: ARVDQTPQTITKETGESLTINCVLRDSHCATSSTYWYRKKSGSTNEESISKGGRYVETVNSGSKSFSLRINDLTVEDSGTYRCASECQYGLAEYDVYGGGTVVTVNGGGGSGGGGSGGGGSGGGGSGAHSTRVDQSPSSLSASVGDRVTITCVLTDTSYPLYSTYWYRKNPGSSNKEQISISGRYSESVNKGTKSFTLTISSLQPEDSATYYCRAMSTNIWTGDGAGTKVEIKGGGGSGGGGSGGGGSGGGGSGAHSARVDQTPQTITKETGESLTINCVLRDSHCATSSTYWYRKKSGSTNEESISKGGRYVETVNSGSKSFSLRINDLTVEDSGTYRCASECQYGLAEYDVYGGGTVVTVNHHHHHHHEQKLISEEDL
notes: Tandem VNAR trimer with His and myc tags
ND50 (nM), neutralisation of hTNF-alpha cytotoxicity in L929 cells [1]: 0.38 nM
koff [2]: 0.0002 s⁻¹
kon [2]: 1.9e+06 M⁻¹ s⁻¹
Kd [4]: 0.1 nM
Kd [5]: 4 nM

B3: TNF VNAR DIMER D1-D1 (VNAR)
chain: ARVDQTPQTITKETGESLTINCVLRDSHCATSSTYWYRKKSGSTNEESISKGGRYVETVNSGSKSFSLRINDLTVEDSGTYRCASECQYGLAEYDVYGGGTVVTVNGGGGSGGGGGSGAHSARVDQTPQTITKETGESLTINCVLRDSHCATSSTYWYRKKSGSTNEESISKGGRYVETVNSGSKSFSLRINDLTVEDSGTYRCASECQYGLAEYDVYGGGTVVTVNAAAHHHHHHGAAESKLISEEDL
ND50 (nM), neutralisation of hTNF-alpha cytotoxicity in L929 cells [1]: 7 nM
koff [2]: 0.000316 s⁻¹
kon [2]: 500000 M⁻¹ s⁻¹
Kd [3]: 0.6 nM

binding result (mouse ICOS ligand): binds
B4: ICOS VNAR CC3-Fc-CC3 (Fc fusion)
chain: TRVDQTPRTATKETGESLTINCVLTDTEYGLFSTSWFRKNPGTTDWERMSIGGRYVESVNKGAKSFSLRIKDLTVADSATYYCKALGWWPPAFPHWYDGAGTVLTVNGGGGSGGGGRTEPKSSDKTHTCPPCPAPEAAGAPSVFLFPPKPKDTLMISRTPEVTCVVVDVSHEDPEVKFNWYVDGVEVHNAKTKPREEQYNSTYRVVSVLTVLHQDWLNGKEYKCKVSNKALPAPIEKTISKAKGQPREPQVYTLPPSREEMTKNQVSLTCLVKGFYPSDIAVEWESNGQPENNYKTTPPVLDSDGSFFLYSKLTVDKSRWQQGNVFSCSVMHEALHNHYTQKSLSLSPGKTAAAATAAAATAAAATAAAATRVDQTPRTATKETGESLTINCVLTDTEYGLFSTSWFRKNPGTTDWERMSIGGRYVESVNKGAKSFSLRIKDLTVADSATYYCKALGWWPPAFPHWYDGAGTVLTVN
notes: Human IgG1 Fc; also called anti-ICOSL Quad-X™ construct

B5: TNF VNAR D1-BA11-B4 (VNAR)
chain: ARVDQTPQTITKETGESLTINCVLRDSHCATSSTYWYRKKSGSTNEESISKGGRYVETVNSGSKSFSLRINDLTVEDSGTYRCASECQYGLAEYDVYGGGTVVTVNGGGGSGGGGSGGGGSGGGGSGAHSTRVDQSPSSLSASVGDRVTITCVLTDTSYPLYSTYWYRKNPGSSNKEQISISGRYSESVNKGTKSFTLTISSLQPEDSATYYCRAMSTNIWTGDGAGTKVEIKGGGGSGGGGSGGGGSGGGGSGAHSARVDQTPQTITKETGESLTINCVLRDSNCALSSMYWYRKKSGSTNEESISKGGRYVETVNSGSKSFSLRINDLTVEDSGTYRCKVYIPCIDELVYMISGGTSGPIHDVYGGGTVVTVNHHHHHHHEQKLISEEDL
notes: as for B2
koff [2]: 0.006 s⁻¹
kon [2]: 1.7e+06 M⁻¹ s⁻¹
Kd [3]: 0.33 nM

binding result (mouse ICOS ligand): binds
binding result (human ICOS ligand): binds
B6: ICOS VNAR CC3-Fc-2D4 (Fc fusion)
chain: TRVDQTPRTATKETGESLTINCVLTDTEYGLFSTSWFRKNPGTTDWERMSIGGRYVESVNKGAKSFSLRIKDLTVADSATYYCKALGWWPPAFPHWYDGAGTVLTVNGGGGSGGGGRTEPKSSDKTHTCPPCPAPEAAGAPSVFLFPPKPKDTLMISRTPEVTCVVVDVSHEDPEVKFNWYVDGVEVHNAKTKPREEQYNSTYRVVSVLTVLHQDWLNGKEYKCKVSNKALPAPIEKTISKAKGQPREPQVYTLPPSREEMTKNQVSLTCLVKGFYPSDIAVEWESNGQPENNYKTTPPVLDSDGSFFLYSKLTVDKSRWQQGNVFSCSVMHEALHNHYTQKSLSLSPGKTAAAATAAAATAAAATAAAATRVDQTPRTATKETGESLTINCVLTDTDYGLFSTSWFRKNPGTTDWERMSIGGRYVESVNKGAKSFSLRIKDLTVADSATYYCKAFTWPWEWPDRWFRPWYDGAGTVLTVN
notes: as for B4

B7: SoloMER™ VNAR D1-v2 (VNAR)
VNAR: ARVDQSPSSLSASVGDRVTITCVLRDSHCATSSTYWYRKKSGSTNEESISKGGRYVETVNSGSKSFTLTISSLQPEDFATYYCASECQYGLAEYDVYGGGTKVEIKH
notes: Humanised D1 VNAR with His tag; also called soloMER D1-v2
binding result [6]: binds

B8: SoloMER™ VNAR D1-v3 (VNAR)
VNAR: B7 VNAR with R38Q, K39Q, S41P, S43K
notes: Humanised D1 VNAR with His tag
binding result [6]: binds

B9: SoloMER™ VNAR D1-v4 (VNAR)
VNAR: B7 VNAR with S41P, Y55F, V56S, E57G, T58S, V59G, N60S, Y97F, G99Q
notes: as for B8
binding result [6]: binds

B10: TNF VNAR B4 (VNAR)
VNAR: ARVDQTPQTITKETGESLTINCVLRDSNCALSSMYWYRKKSGSTNEESISKGGRYVETVNSGSKSFSLRINDLTVEDSGTYRCKVYIPCIDELVYMISGGTSGPIHDVYGGGTVVTVNA
notes: Nurse shark VNAR single domain, expressed with His and myc tags
binding result [7]: binds

fold improvement of in vitro neutralizing potency over S17-Fc (Mouse TNFα): ~40 fold
B11: TNF S17-Quad-X™ with (Gly4Ser)5 (Fc fusion)
chain: ASVNQTPRTATKETGESLTINCVLTDTHAKVFTTSWFRKNPGTTDWERMSIGGRYVESVNKGAKSFSLRIKDLTVADSATYICRAGGYLSQPRVYWDVYGAGTVLTVNGGGGSGGGGRTEPRGPTIKPCPPCKCPAPNLLGGPSVFIFPPKIKDVLMISLSPIVTCVVVDVSEDDPDVQISWFVNNVEVHTAQTQTHREDYNSTLRVVSALPIQHQDWMSGKEFKCKVNNKDLPAPIERTISKPKGSVRAPQVYVLPPPEEEMTKKQVTLTCMVTDFMPEDIYVEWTNNGKTELNYKNTEPVLDSDGSYFMYSKLRVEKKNWVERNSYSCSVVHEGLHNHHTTKSFSRTPGKGGGGSGGGGSGGGGSGGGGSGAHSASVNQTPRTATKETGESLTINCVLTDTHAKVFTTSWFRKNPGTTDWERMSIGGRYVESVNKGAKSFSLRIKDLTVADSATYICRAGGYLSQPRVYWDVYGAGTVLTVN
